Test results from patent US20240200091A1, “USE OF PROTOPORPHYRINOGEN OXIDASE” (BEIJING DABEINONG BIOTECHNOLOGY CO., LTD., priority 2021, published 2024).

B1: PPO7A: nucleotide sequence encoding microbial protoporphyrinogen oxidase PPO7 (SEQ ID NO:7), Arabidopsis thaliana/soybean common codon usage bias (nucleic acid)
DNA: ATGGATAAGATATTAGTCCTGTACAGTAGTCAAGATGGGCAGACGAGGAAGATTGTTGATGCAATGCTTGAAGAAATCTCTGGTTGTGATGTTGTGATTCAAGACTTGCACACACTACCGAAATGCAACCTATCCAAATATGCGAAAGTGTTGATTGGTGCTTCCATAAGGTATGGAAACTTCCATCCTTCTCTTCTCAGCTTCATCAATGCTCATCATGAACAACTTGAGGTTGCTAATGCGGCCTTCTTCTGTGTAAATCTCACTGCCCGAAAACCTGAGAAGCAAACTCCCCAGACAAACGCTTACATGAAGAAGTTTTTACGCTTATCACCATGGAAACCAAAGACCCTTGGAGTGTTTGCAGGAGCTTTGCAATATTCAAGATACAATTGGTGGCAAACCCGTATCATTCAGCTGATAATGAAAATGACTGGTGGCTCAACAGACACATCTCAGGATTTGGAGTTTACTGATTGGGTTAAAGTCCGGTCGTTTGCAAGAGAATTTTGGAGCAAGAGATGA
modifications: The nucleotide sequence of PPO7A
B2: PPO9A: nucleotide sequence encoding microbial protoporphyrinogen oxidase PPO9 (SEQ ID NO:9), Arabidopsis thaliana/soybean common codon usage bias (nucleic acid)
DNA: ATGGAGAAAGTTCTTCTACTGCATTCTTCCTCTGATGGTCAGACAGTGAAGATTCTCAGACATATTGAAACAACATTAGGTGGTGATTACCAATGTGAGCTTGTGGATTTGAATACTCTGCCGACTGTTGATTTTGCTGATTATGACCGTGTCTTAGTAGGCGCGAGTATACGCTATGGGCACCTCAACAAGAAACTCTACCAGTTTATAGAGAGATACAGAGATGAATTGGACCAAAACAAAGTAGGTTTCTTCTGCGTGAATCTTACTGCAAGGAAAGAAGGAAAGAATACGCCTGAGACTAGCGTTTACATGAAGACCTTTTTGAAGAAGTCGCCATGGTGTCCAAAATTGCAAGAAGTTTTCGCTGGAGCTCTTCGTTATCCTCGGTATGGATGGTTTGATAGGGTCATGATTCAGTTCATCATGAGAATCACGGGGGGAGAAACCGACACATCAAAAGAGGTTGAGTATACTGATTGGCAAAAGGTTGAAGCTTTTGCAGCCCGATTCAAACATTACTGA
modifications: The nucleotide sequence of PPO9A
B3: PPO10A: nucleotide sequence encoding microbial protoporphyrinogen oxidase PPO10 (SEQ ID NO:10), Arabidopsis thaliana/soybean common codon usage bias (nucleic acid)
DNA: ATGAAAGCTCTCTTTCTGTACTCGTCTCAAGAAGGACAGACAAGGAAGATTATAGAGAGAATCGCCCAGCAAATGCCGGAGTATGATTGTGATATTCAAGATCTTCATCAAGTAAGCGACATTGCATTAGCTGATTATGACAAGATCCTAATAGGGGCCAGTATCCGATATGGAAGATTGAATGATAAACTATATCAATTTATTCAGAGATATCTTCCCGATCTCCGCTCCAACAAAGCAGCTTTCTTCTGCGTCAATCTTACGGCGAGAAAGGAAGAACAAGGAAAAGACACCCCAGAAGGTTCTGTTTACATCCAGACTTTCTTGAAGAAATCACCATGGCAACCTGAGAGGATTGCAGTGTTTGCTGGTGCTCTTTACTATCCTCGTTACAGATGGTTTGATAAGATGATGATTCGGTTAATAATGACTTTGACCGGCGGTGAAACTGATACATCAAAAGAAGTTGAGTACACAAATTGGAACAAGGTTTCTCAGTTTGCGGAGCAGTTCCGTAACTGGTGA
modifications: The nucleotide sequence of PPO10A

Assays:
Format in all cases: in vivo
Settings in all cases: 7 DAT, number of plants of 24 per genotype, grades
[1] = system: Arabidopsis thaliana T1 plants; test: oxyfluorfen tolerance of transgenic Arabidopsis thaliana T1 plants (spray, grade of pesticide damage)
Summary of the method: (§1)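 Graded 0–3 by injured-to-total leaf area 7 days after spraying, with grades 0–1 rated highly resistant. Plants (24 per genotype, 18 days old) received water or 1× and 4× field rates (sulfentrazone 1× and 2×, 450/900 g ai/ha) of each herbicide.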

[2] = system: Arabidopsis thaliana T1 plants; test: saflufenacil tolerance of transgenic Arabidopsis thaliana T1 plants (spray, grade of pesticide damage)
Summary of the method: as §1

[3] = system: Arabidopsis thaliana T1 plants; test: flumioxazin tolerance of transgenic Arabidopsis thaliana T1 plants (spray, grade of pesticide damage)
Summary of the method: as §1

[4] = system: Arabidopsis thaliana T1 plants; test: sulfentrazone tolerance of transgenic Arabidopsis thaliana T1 plants (spray, grade of pesticide damage)
Summary of the method: as §1

Molecule | The grade of pesticide damage/plant: grade 0 ([1]; oxyfluorfen 180 g ai/ha (1×)) [plant] | The grade of pesticide damage/plant: grade 1 ([1]; oxyfluorfen 180 g ai/ha (1×)) [plant] | The grade of pesticide damage/plant: grade 2 ([1]; oxyfluorfen 180 g ai/ha (1×)) [plant] | The grade of pesticide damage/plant: grade 3 ([1]; oxyfluorfen 180 g ai/ha (1×)) [plant] | The grade of pesticide damage/plant: grade 0 ([1]; oxyfluorfen 720 g ai/ha (4×)) [plant] | The grade of pesticide damage/plant: grade 1 ([1]; oxyfluorfen 720 g ai/ha (4×)) [plant] | The grade of pesticide damage/plant: grade 2 ([1]; oxyfluorfen 720 g ai/ha (4×)) [plant] | The grade of pesticide damage/plant: grade 3 ([1]; oxyfluorfen 720 g ai/ha (4×)) [plant] | The grade of pesticide damage/plant: grade 0 ([2]; saflufenacil 25 g ai/ha (1×)) [plant] | The grade of pesticide damage/plant: grade 1 ([2]; saflufenacil 25 g ai/ha (1×)) [plant] | The grade of pesticide damage/plant: grade 2 ([2]; saflufenacil 25 g ai/ha (1×)) [plant] | The grade of pesticide damage/plant: grade 3 ([2]; saflufenacil 25 g ai/ha (1×)) [plant] | The grade of pesticide damage/plant: grade 0 ([2]; saflufenacil 100 g ai/ha (4×)) [plant] | The grade of pesticide damage/plant: grade 1 ([2]; saflufenacil 100 g ai/ha (4×)) [plant] | The grade of pesticide damage/plant: grade 2 ([2]; saflufenacil 100 g ai/ha (4×)) [plant] | The grade of pesticide damage/plant: grade 3 ([2]; saflufenacil 100 g ai/ha (4×)) [plant] | The grade of pesticide damage/plant: grade 0 ([3]; flumioxazin 60 g ai/ha (1×)) [plant] | The grade of pesticide damage/plant: grade 1 ([3]; flumioxazin 60 g ai/ha (1×)) [plant] | The grade of pesticide damage/plant: grade 2 ([3]; flumioxazin 60 g ai/ha (1×)) [plant] | The grade of pesticide damage/plant: grade 3 ([3]; flumioxazin 60 g ai/ha (1×)) [plant] | further results
B1 | 24 | 0 | 0 | 0 | 20 | 4 | 0 | 0 | 24 | 0 | 0 | 0 | 4 | 20 | 0 | 0 | 24 | 0 | 0 | 0 | The grade of pesticide damage/plant: grade 0 ([3]; flumioxazin 240 g ai/ha (4×)): 24 plant; The grade of pesticide damage/plant: grade 1 ([3]; flumioxazin 240 g ai/ha (4×)): 0 plant; The grade of pesticide damage/plant: grade 2 ([3]; flumioxazin 240 g ai/ha (4×)): 0 plant; The grade of pesticide damage/plant: grade 3 ([3]; flumioxazin 240 g ai/ha (4×)): 0 plant; The grade of pesticide: grade 0 ([4]; sulfentrazone 450 g ai/ha (1×)): 24; The grade of pesticide: grade 1 ([4]; sulfentrazone 450 g ai/ha (1×)): 0; The grade of pesticide: grade 2 ([4]; sulfentrazone 450 g ai/ha (1×)): 0; The grade of pesticide: grade 3 ([4]; sulfentrazone 450 g ai/ha (1×)): 0; The grade of pesticide: grade 0 ([4]; sulfentrazone 900 g ai/ha (2×)): 22; The grade of pesticide: grade 1 ([4]; sulfentrazone 900 g ai/ha (2×)): 2; The grade of pesticide: grade 2 ([4]; sulfentrazone 900 g ai/ha (2×)): 0; The grade of pesticide: grade 3 ([4]; sulfentrazone 900 g ai/ha (2×)): 0
B2 | 24 | 0 | 0 | 0 | 20 | 4 | 0 | 0 | 24 | 0 | 0 | 0 | 0 | 24 | 0 | 0 | 24 | 0 | 0 | 0 | The grade of pesticide damage/plant: grade 0 ([3]; flumioxazin 240 g ai/ha (4×)): 24 plant; The grade of pesticide damage/plant: grade 1 ([3]; flumioxazin 240 g ai/ha (4×)): 0 plant; The grade of pesticide damage/plant: grade 2 ([3]; flumioxazin 240 g ai/ha (4×)): 0 plant; The grade of pesticide damage/plant: grade 3 ([3]; flumioxazin 240 g ai/ha (4×)): 0 plant; The grade of pesticide: grade 0 ([4]; sulfentrazone 450 g ai/ha (1×)): 24; The grade of pesticide: grade 1 ([4]; sulfentrazone 450 g ai/ha (1×)): 0; The grade of pesticide: grade 2 ([4]; sulfentrazone 450 g ai/ha (1×)): 0; The grade of pesticide: grade 3 ([4]; sulfentrazone 450 g ai/ha (1×)): 0; The grade of pesticide: grade 0 ([4]; sulfentrazone 900 g ai/ha (2×)): 18; The grade of pesticide: grade 1 ([4]; sulfentrazone 900 g ai/ha (2×)): 6; The grade of pesticide: grade 2 ([4]; sulfentrazone 900 g ai/ha (2×)): 0; The grade of pesticide: grade 3 ([4]; sulfentrazone 900 g ai/ha (2×)): 0
B3 | 24 | 0 | 0 | 0 | 20 | 4 | 0 | 0 | 24 | 0 | 0 | 0 | 0 | 24 | 0 | 0 | 24 | 0 | 0 | 0 | The grade of pesticide damage/plant: grade 0 ([3]; flumioxazin 240 g ai/ha (4×)): 24 plant; The grade of pesticide damage/plant: grade 1 ([3]; flumioxazin 240 g ai/ha (4×)): 0 plant; The grade of pesticide damage/plant: grade 2 ([3]; flumioxazin 240 g ai/ha (4×)): 0 plant; The grade of pesticide damage/plant: grade 3 ([3]; flumioxazin 240 g ai/ha (4×)): 0 plant; The grade of pesticide: grade 0 ([4]; sulfentrazone 450 g ai/ha (1×)): 24; The grade of pesticide: grade 1 ([4]; sulfentrazone 450 g ai/ha (1×)): 0; The grade of pesticide: grade 2 ([4]; sulfentrazone 450 g ai/ha (1×)): 0; The grade of pesticide: grade 3 ([4]; sulfentrazone 450 g ai/ha (1×)): 0; The grade of pesticide: grade 0 ([4]; sulfentrazone 900 g ai/ha (2×)): 20; The grade of pesticide: grade 1 ([4]; sulfentrazone 900 g ai/ha (2×)): 4; The grade of pesticide: grade 2 ([4]; sulfentrazone 900 g ai/ha (2×)): 0; The grade of pesticide: grade 3 ([4]; sulfentrazone 900 g ai/ha (2×)): 0
